Measurements reported in US20180371083A1.

Legend:
[1] = target: human TIGIT-His protein (extracellular domain of human TIGIT fused to His tag) (human) (UniProt Q495A1); assay: SPR, Biacore T200; antibody captured on anti-mouse IgG, human TIGIT-His as analyte; 1:1 Langmuir fit
[2] = target: human TIGIT expressed on cells (CHO-K1 transfectants; Jurkat over-expressing human TIGIT) (human) (UniProt Q495A1); assay: cell-based or functional assay
human TIGIT expressed on cells (CHO-K1 transfectants; Jurkat over-expressing human TIGIT) (human), sequence (Q495A1 25-244): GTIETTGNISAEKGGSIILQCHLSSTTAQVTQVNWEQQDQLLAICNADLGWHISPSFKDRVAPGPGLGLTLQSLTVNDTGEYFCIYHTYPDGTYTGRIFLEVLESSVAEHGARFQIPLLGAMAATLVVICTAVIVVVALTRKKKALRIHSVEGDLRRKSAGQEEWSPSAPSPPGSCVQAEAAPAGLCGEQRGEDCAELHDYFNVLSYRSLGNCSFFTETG

human TIGIT-His protein (extracellular domain of human TIGIT fused to His tag) (human), sequence (Q495A1 25-141 limits assumed): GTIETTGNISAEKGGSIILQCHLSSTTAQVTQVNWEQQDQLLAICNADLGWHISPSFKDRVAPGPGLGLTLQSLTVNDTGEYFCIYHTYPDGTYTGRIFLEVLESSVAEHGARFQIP

## commercial anti-hTIGIT antibody, clone MBSA43 (eBioscience Cat#12-9500-42)
[1]
  Kd: 0.0363 nM
[2]
  EC50, rescue of IL-2 in hTIGIT-Jurkat / THP-1 co-culture with CD155-Fc or CD112-Fc: 0.23 µg/mL
